Assay results from patent US20250313643A1 (UNM RAINFOREST INNOVATIONS, published 2025).
Numbering of substitutions follows the chain as printed. Blank lines part the entries; values can stand above or below the binder they belong to.

How the values were obtained:
[1] = target: T1, human CCKBR extracellular peptide (human, UniProt P32239 39-53); experiment: ELISA affinity measurement
T1 construct: domain: extracellular fragment of human CCK-BR; also called human peptide; human CCKBR peptide

[2] = target: T1, human CCKBR extracellular peptide; experiment: indirect ELISA on human CCKBR peptide, OD450nm against nM scFv; column head 'Apparent kD (nM)'
[3] = target: T1, human CCKBR extracellular peptide; experiment: Assay and target are not stated on the sheet. The Kd stands in the legend box of an in vivo plot. The text describes affinity measurement of the humanized variants against the human peptide.
CCKBR peptide = target: T2, CCKBR peptide; experiment: ELISA (panel 'Binding Affinity by ELISA'), OD450nm against nM scFv. The coated peptide is not named in the panel.
T2 construct: It may be the same as m3 or m4; also called target CCKBR peptide; target peptide (immunization and selection)
T2 peptide: CETPRIRGTGTRELE

fold improvement in affinity compared with parental mscFv77-2 [1]: > 25 fold
Kd [2]: 4.3 nM
Kd [3]: 3.1 nM
B1: scFv77-2 hu HC2-LC3 (scFv)
scFv: MAQVQLVQSGAEVKKPGASVKVSCKASGFNIKDYYIHWVRQAPGQGLEWIGWIDPENGDTEYAPKFQGRATMTADTSISTAYMELSRLRSDDTAVYYCNAGGRFAYWGQGTLVTVSSGGGGSGGGGSGGGGSDIQMTQSPSTLSASVGDRVTITCKSSQSLLNSGNQKNYLAWYQQKPGKAPKLLIYGASTRESGVPSRFSGSGSGTEFTLTISSLQPDDFATYYCQNDHSYPYTFGGGTKVEIKENLYFQGAAALEHHHHHH
notes: also called humanized CCKBR scFv HC2-LC3; CCKBR hscFv HC2-LC3

Kd [3]: 9.8 nM
B2: HC2-LC2 (scFv)
scFv (VH-linker-VL, with protease site and His tag): B1 scFv with T142S, E208D, D219E, V242L
notes: also called scFv77-2 hu HC2-LC2; scFv77-2 hu HC2-linker-LC2

Kd [2]: 109 nM
Kd (CCKBR peptide): 195 nM
B3: mscFv77-2 Parental (scFv, V domains shown)
VH: EVQLQQAGAELVRSGASVKLSCTASGFNIKDYYIHWVKQRPEQGLEWIGWIDPENGDTEYAPKFQGKATMTADTSSNTAYLQLSSLTSEDTAVYYCNAGGRFAYWGQGTLVTVSA
VL: DIVMTQSPSSLSVSAGEKVTMSCKSSQSLLNSGNQKNYLAWYQQKPGQPPKLLIYGASTRESGVPDRFTGSGSGTDFTLTISSVQAEDLAVYYCQNDHSYPYTFGGGTKLEIK
notes: Murine single-chain Fv; It has a kappa light chain; also called murine parent scFv; parental scFv
